Patent US5580712

Molecular target: FLAG epitope Trypsin site N-terminally tagged 9 repeat GG biopolymer (SEQ ID NO:20)

completeness of proteolytic cleavage, from relative mobility on SDS gels: 100%
Substance: Trypsin (type XI DPCC treated) (enzyme)
